Data reported in patent publication US20080058636A1, “METHODS OF MYOCARDIAL IMAGING” (Epix Pharmaceuticals, Inc., priority 2005, published 2008).
Bridge positions count the residues as written; N and C are the ends. Ends that are not written are not given here. GdT = GdDTPA-thiourea

B1: SEQ ID NO: 83 (peptide)
peptide: GWACNTTSKGDWECTNL
modifications: disulfide 4-14; not fully specified (C-terminus)
B2: SEQ ID NO: 1 (peptide)
peptide: YHACYQAGCWIW
modifications: disulfide 4-9; not fully specified (C-terminus)
B3: SEQ ID NO: 36 (peptide)
peptide: SWSCGGDHNAWKCQYS
modifications: disulfide 4-13; also: C-terminus probably amidated (Rink amide resin)
B4: SEQ ID NO: 65 (peptide)
peptide: KWECVHTKGEWYCETK
modifications: disulfide 4-13 (inferred); also: C-terminus likely amidated (Rink amide resin)
B5: SEQ ID NO: 85 (peptide)
peptide: GWTCSQPGANVWNCTMQ
modifications: disulfide 4-14; not fully specified (C-terminus)
B6: SEQ ID NO: 35 (peptide)
peptide: YWVCGGDHQSWHCSHP
modifications: disulfide 4-13; also: C-terminus probably amidated (Rink amide resin)
B7: SEQ ID NO: 9 (peptide)
peptide: TWNCYGVTEWHCYMI
modifications: disulfide 4-12; not fully specified (C-terminus)
B8: SEQ ID NO: 4 (peptide)
peptide: TWMCVDPPLWRCWVQ
modifications: disulfide 4-12; also: C-terminus probably amidated (Rink amide resin)
B9: SEQ ID NO: 64 (peptide)
peptide: TWICSHNDKGWTCGDQ
modifications: disulfide 4-13 (inferred); also: C-terminus likely amidated (Rink amide resin)
B10: SEQ ID NO: 66 (peptide)
peptide: RWSCVLDADGWVCSDN
modifications: disulfide 4-13 (inferred); also: C-terminus likely amidated (Rink amide resin)
B11: SEQ ID NO: 78 (peptide)
peptide: TWACDLDEYGGWQCYTG
modifications: disulfide 4-14 (inferred); also: C-terminal amide likely (Rink amide resin)
B12: SEQ ID NO: 39 (peptide)
peptide: GWQCSGDASVWNCDWI
modifications: disulfide 4-13; also: C-terminus probably amidated (Rink amide resin)
B13: SEQ ID NO: 67 (peptide)
peptide: GWSCHSMDMQWHCDFS
modifications: disulfide 4-13 (inferred); also: C-terminus likely amidated (Rink amide resin)
B14: SEQ ID NO: 5 (peptide)
peptide: NWKCWGVVKWECIWA
modifications: disulfide 4-12; also: C-terminus presumably amidated (Rink amide resin)
B15: SEQ ID NO: 37 (peptide)
peptide: LWNCHGTDANWKCVLN
modifications: disulfide 4-13; also: C-terminus probably amidated (Rink amide resin)
B16: SEQ ID NO: 3 (peptide)
peptide: PWWCHEMPSMCFGF
modifications: disulfide 4-11; also: C-terminus probably amidated (Rink amide resin)
B17: SEQ ID NO: 99 (peptide)
peptide: AKKCWYNDGGHLRCRTL
modifications: disulfide 4-14; not fully specified (C-terminus)
B18: SEQ ID NO: 68 (peptide)
peptide: SWHCFLENHHWMCSDH
modifications: disulfide 4-13 (inferred); also: C-terminus likely amidated (Rink amide resin)
B19: SEQ ID NO: 84 (peptide)
peptide: HWSCDLAMDNEWFCSTK
modifications: disulfide 4-14; not fully specified (C-terminus)
B20: SEQ ID NO: 38 (peptide)
peptide: GWSCHGDAADWPCQWS
modifications: disulfide 4-13; also: C-terminus probably amidated (Rink amide resin)
B21: SEQ ID NO: 6 (peptide)
peptide: TWQCSGNQKWSCEWF
modifications: disulfide 4-12; also: C-terminus probably amidated (Rink amide resin)
B22: SEQ ID NO: 41 (peptide)
peptide: VWACRGGTTNWHCDL
modifications: disulfide 4-13; also: C-terminus probably amidated (Rink amide resin)
B23: SEQ ID NO: 8 (peptide)
peptide: GWQCFGASDWHCTWV
modifications: disulfide 4-12; not fully specified
B24: SEQ ID NO: 79 (peptide)
peptide: FWTCELDFRQSWYCYDK
modifications: disulfide 4-14 (inferred); not fully specified
B25: SEQ ID NO: 82 (peptide)
peptide: LWTCSMDRNYDWVCGEK
modifications: disulfide 4-14; not fully specified (C-terminus)
B26: SEQ ID NO: 81 (peptide)
peptide: QWFCEMDEYGKWNCGMM
modifications: disulfide 4-14; not fully specified (C-terminus)
B27: SEQ ID NO: 108 (peptide)
peptide: YHACYQAGCYIY
modifications: disulfide 4-9; not fully specified (C-terminus)
B28: SEQ ID NO: 63 (peptide)
peptide: NWYCSQALDNWSCKLR
modifications: disulfide 4-13; also: C-terminus likely amidated (Rink amide resin)
B29: Compound ID 990 (peptide)
chain: GKWYCTTYFPHHYCLYG
B30: Compound ID 993 (peptide)
peptide: GdT-GQWHCYTKFPHHYCLYGK
modifications: disulfide 5-14 (inferred); not fully specified (residues 8, 18, C-terminus)
B31: Compound ID 1010 (peptide)
chain: GKWHCYTKFPHHYCVYYY
B32: Compound ID 989 (peptide)
chain: GKWHCYTYFPHHYCLYVK
B33: Compound ID 995 (peptide)
chain: GKWHCYTKFPHHYCLYGK
B34: Compound ID 1013 (peptide)
chain: GKWHCYTKFPHHYCKYY
B35: Compound ID 1015 (peptide)
chain: KKGWHCYTYFPHHYCTYG
B36: Compound ID 991 (peptide)
chain: GKWHCYKYFPHHYCLYG
B37: Compound ID 1011 (peptide)
chain: GKWHCYTKFPYHYCVYY
B38: Compound ID 1016 (peptide)
chain: KKAWHCYTYFPHHYCVYG
B39: Compound ID NO. 1014 (peptide)
chain: KKWHCYTYFPHHYCVYG
modifications: disulfide 5-14 (inferred); also: coupled to ITC-Gd3 (tris-Gd-DOTAGA isothiocyanate), site not given here
B40: Compound ID 985 (peptide)
chain: GKWHCYTYFPHHYCLYFK
B41: Compound ID 1017 (peptide)
chain: KKLWHCYTYFPHHYCVYG
B42: Compound ID 994 (peptide)
peptide: GdT-GQWHCYTYFPHHYCLYGK
modifications: disulfide 5-14 (inferred); not fully specified (residue 18, C-terminus)
B43: Compound ID 996 (peptide)
chain: GKWHCYTYFPHHYCLYGK
B44: Compound ID 1018 (peptide)
chain: KKYWHCYTYFPHHYCVYG

The binders below were run against human collagen type I (acid soluble, extracted from placenta, Sigma C7774) (human) (UniProt P02452) (assay: dried collagen assay).
human collagen type I (acid soluble, extracted from placenta, Sigma C7774) (human), sequence (P02452 162-1218 limits assumed, chain 1 of 2): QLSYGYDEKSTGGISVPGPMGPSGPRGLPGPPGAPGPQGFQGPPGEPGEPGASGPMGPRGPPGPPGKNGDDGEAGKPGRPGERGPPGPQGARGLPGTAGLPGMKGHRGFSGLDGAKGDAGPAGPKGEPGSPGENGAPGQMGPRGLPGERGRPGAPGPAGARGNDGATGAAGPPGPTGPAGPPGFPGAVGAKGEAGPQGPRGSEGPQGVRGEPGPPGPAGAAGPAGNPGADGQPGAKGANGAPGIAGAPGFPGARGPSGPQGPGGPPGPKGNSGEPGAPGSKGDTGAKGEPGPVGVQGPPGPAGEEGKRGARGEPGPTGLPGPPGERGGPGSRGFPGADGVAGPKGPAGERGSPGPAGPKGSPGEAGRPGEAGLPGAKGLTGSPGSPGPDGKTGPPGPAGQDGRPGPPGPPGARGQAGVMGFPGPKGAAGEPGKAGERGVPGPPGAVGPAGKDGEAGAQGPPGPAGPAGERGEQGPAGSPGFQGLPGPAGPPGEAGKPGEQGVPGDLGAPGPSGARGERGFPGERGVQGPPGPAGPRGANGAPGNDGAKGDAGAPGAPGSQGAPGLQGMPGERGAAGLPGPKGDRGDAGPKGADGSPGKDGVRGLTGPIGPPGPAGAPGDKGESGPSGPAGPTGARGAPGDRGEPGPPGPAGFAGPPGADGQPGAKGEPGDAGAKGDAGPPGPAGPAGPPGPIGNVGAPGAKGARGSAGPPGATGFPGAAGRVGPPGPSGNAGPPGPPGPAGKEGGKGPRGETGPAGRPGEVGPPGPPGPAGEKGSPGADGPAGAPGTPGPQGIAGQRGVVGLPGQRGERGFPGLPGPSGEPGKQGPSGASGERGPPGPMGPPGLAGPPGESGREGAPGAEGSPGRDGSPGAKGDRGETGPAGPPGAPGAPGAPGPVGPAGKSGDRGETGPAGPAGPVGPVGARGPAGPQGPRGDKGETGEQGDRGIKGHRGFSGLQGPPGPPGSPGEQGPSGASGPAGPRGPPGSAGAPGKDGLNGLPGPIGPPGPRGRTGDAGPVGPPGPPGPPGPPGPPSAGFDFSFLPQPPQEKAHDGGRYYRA
human collagen type I (acid soluble, extracted from placenta, Sigma C7774) (human), sequence (P08123 80-1119 limits assumed, chain 2 of 2, further chain): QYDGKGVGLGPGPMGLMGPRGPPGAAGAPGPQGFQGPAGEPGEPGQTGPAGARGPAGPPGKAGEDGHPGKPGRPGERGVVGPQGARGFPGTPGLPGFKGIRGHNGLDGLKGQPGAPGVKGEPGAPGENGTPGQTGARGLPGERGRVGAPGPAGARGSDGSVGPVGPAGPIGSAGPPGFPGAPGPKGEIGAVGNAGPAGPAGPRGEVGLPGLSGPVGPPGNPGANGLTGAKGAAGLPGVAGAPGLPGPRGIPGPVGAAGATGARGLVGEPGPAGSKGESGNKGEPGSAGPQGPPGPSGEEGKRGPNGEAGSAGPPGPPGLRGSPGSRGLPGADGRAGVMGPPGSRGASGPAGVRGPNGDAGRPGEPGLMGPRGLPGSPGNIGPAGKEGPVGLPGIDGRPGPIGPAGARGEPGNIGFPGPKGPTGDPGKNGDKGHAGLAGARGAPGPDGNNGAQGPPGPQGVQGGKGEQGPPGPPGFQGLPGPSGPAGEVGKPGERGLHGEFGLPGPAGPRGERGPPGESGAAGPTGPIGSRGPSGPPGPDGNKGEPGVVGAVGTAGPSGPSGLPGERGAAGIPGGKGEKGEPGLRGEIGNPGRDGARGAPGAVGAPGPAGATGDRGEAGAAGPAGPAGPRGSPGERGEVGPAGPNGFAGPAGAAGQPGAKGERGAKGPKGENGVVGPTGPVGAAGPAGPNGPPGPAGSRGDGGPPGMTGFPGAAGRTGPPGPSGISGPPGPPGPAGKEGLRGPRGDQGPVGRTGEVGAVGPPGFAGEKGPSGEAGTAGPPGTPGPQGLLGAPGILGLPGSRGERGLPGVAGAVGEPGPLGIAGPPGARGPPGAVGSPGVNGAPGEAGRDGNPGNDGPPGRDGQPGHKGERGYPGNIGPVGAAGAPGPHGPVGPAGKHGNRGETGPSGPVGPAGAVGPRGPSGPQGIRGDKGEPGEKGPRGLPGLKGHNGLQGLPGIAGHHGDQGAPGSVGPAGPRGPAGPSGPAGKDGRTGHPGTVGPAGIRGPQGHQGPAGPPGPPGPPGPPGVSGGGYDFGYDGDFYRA
A Dried Human Collagen Binding of 3% was found for B1 in this work. A Dried Human Collagen Binding of 56% was found for B2 in this work. A Dried Human Collagen Binding of 7% was found for B3 in this work. A Dried Human Collagen Binding of 7% was found for B4 in this work. A Dried Human Collagen Binding of 3% was found for B5 in this work. A Dried Human Collagen Binding of 8% was found for B6 in this work. A Dried Human Collagen Binding of 7% was found for B7 in this work. A Dried Human Collagen Binding of 45% was found for B8 in this work. A Dried Human Collagen Binding of 8% was found for B9 in this work. A Dried Human Collagen Binding of 6% was found for B10 in this work. A Dried Human Collagen Binding of 8% was found for B11 in this work. A Dried Human Collagen Binding of 6% was found for B12 in this work. A Dried Human Collagen Binding of 5% was found for B13 in this work. A Dried Human Collagen Binding of 24% was found for B14 in this work. A Dried Human Collagen Binding of 7% was found for B15 in this work. A Dried Human Collagen Binding of 2% was found for B16 in this work. A Dried Human Collagen Binding of 3% was found for B17 in this work. A Dried Human Collagen Binding of 5% was found for B18 in this work. A Dried Human Collagen Binding of 3% was found for B19 in this work. A Dried Human Collagen Binding of 6% was found for B20 in this work. A Dried Human Collagen Binding of 20% was found for B21 in this work. A Dried Human Collagen Binding of 1% was found for B22 in this work. A Dried Human Collagen Binding of 9% was found for B23 in this work. A Dried Human Collagen Binding of 8% was found for B24 in this work. A Dried Human Collagen Binding of 3% was found for B25 in this work. A Dried Human Collagen Binding of 3% was found for B26 in this work. A % Collagen Binding of 5% was found for B27 in this work. A Dried Human Collagen Binding of 8% was found for B28 in this work.

What follows are binders tested against human collagen type I (acid soluble, extracted from placenta, Sigma C7774) (human) (UniProt P02452) (assay: dried collagen assay, 5 uM each).
A Human binding of 59% was found for B29 in this work. A Human binding of 75% was found for B30 in this work. A Human binding of 92% was found for B31 in this work. A Human binding of 67% was found for B32 in this work. A Human binding of 51% was found for B33 in this work. A Human binding of 81% was found for B34 in this work. A Human binding of 29% was found for B35 in this work. A Human binding of 23% was found for B36 in this work. A Human binding of 94% was found for B37 in this work. A Human binding of 48% was found for B38 in this work. A Human binding of 72% was found for B39 in this work. A Human binding of 56% was found for B40 in this work. A Human binding of 25% was found for B41 in this work. A Human binding of 86% was found for B42 in this work. A Human binding of 76% was found for B43 in this work. A Human binding of 53% was found for B44 in this work.

The binders below were run against rat collagen (acid soluble, type I, rat tail, Upstate 08-115) (rat) (UniProt P02454) (assay: dried collagen assay, 5 uM each).
rat collagen (acid soluble, type I, rat tail, Upstate 08-115) (rat), sequence (P02454 152-1207, chain 1 of 2): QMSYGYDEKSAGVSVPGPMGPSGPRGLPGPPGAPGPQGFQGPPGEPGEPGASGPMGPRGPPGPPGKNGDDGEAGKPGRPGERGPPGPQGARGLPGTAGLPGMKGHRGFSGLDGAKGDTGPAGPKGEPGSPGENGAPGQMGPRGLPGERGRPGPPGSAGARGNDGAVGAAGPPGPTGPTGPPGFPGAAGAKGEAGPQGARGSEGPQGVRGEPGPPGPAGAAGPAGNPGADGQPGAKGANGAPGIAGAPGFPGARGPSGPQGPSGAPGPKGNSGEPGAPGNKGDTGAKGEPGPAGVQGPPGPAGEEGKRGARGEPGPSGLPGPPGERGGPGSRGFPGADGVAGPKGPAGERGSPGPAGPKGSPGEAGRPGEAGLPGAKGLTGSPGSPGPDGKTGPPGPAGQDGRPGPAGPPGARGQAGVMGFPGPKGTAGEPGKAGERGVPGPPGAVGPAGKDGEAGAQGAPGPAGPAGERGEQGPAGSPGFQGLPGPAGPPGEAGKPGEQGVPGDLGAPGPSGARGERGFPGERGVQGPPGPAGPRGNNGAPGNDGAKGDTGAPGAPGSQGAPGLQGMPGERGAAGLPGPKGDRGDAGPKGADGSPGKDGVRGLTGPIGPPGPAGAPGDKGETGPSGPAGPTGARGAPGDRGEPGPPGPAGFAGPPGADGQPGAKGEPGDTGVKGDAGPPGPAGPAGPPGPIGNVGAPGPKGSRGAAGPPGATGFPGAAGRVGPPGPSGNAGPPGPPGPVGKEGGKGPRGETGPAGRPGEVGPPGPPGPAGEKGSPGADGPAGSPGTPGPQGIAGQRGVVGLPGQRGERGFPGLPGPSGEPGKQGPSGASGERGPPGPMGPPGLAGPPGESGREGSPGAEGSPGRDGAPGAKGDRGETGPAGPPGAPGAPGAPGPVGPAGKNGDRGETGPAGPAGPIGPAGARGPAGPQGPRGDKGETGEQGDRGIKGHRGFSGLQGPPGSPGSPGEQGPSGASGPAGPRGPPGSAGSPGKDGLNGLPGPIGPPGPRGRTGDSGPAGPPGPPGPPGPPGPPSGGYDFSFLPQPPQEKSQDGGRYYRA
rat collagen (acid soluble, type I, rat tail, Upstate 08-115) (rat), sequence (P02466 86-1125, chain 2 of 2, further chain): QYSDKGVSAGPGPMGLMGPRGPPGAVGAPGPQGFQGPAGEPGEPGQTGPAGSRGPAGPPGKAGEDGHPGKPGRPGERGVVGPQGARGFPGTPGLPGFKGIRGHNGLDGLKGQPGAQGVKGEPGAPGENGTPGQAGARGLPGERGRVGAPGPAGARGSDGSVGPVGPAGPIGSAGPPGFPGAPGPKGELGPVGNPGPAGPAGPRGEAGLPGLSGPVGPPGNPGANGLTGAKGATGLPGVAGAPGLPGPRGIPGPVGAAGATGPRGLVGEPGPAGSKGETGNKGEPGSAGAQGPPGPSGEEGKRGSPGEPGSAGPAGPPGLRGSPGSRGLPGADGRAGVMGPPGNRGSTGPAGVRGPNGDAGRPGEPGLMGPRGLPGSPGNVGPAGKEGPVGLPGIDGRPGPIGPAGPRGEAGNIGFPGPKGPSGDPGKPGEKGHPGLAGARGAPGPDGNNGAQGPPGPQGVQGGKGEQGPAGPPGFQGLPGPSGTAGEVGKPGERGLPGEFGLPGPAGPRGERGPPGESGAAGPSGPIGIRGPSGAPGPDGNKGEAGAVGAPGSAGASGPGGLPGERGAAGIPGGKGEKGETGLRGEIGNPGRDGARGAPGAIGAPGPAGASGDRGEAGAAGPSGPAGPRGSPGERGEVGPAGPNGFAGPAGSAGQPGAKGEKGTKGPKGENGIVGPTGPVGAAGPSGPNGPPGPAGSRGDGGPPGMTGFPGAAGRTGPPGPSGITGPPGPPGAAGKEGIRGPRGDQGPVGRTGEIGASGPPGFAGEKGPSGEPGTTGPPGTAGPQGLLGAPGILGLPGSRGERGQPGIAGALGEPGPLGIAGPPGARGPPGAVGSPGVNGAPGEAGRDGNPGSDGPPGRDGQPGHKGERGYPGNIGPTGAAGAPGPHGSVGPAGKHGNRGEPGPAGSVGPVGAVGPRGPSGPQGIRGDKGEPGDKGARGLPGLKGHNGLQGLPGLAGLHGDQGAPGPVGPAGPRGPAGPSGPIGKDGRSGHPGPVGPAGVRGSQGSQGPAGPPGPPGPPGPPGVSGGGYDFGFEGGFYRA
A Rat binding of 62% was found for B29 in this work. A Rat binding of 70% was found for B30 in this work. A Rat binding of 89% was found for B31 in this work. A Rat binding of 74% was found for B32 in this work. A Rat binding of 42% was found for B33 in this work. A Rat binding of 88% was found for B34 in this work. A Rat binding of 30% was found for B35 in this work. A Rat binding of 11% was found for B36 in this work. A Rat binding of 93% was found for B37 in this work. A Rat binding of 50% was found for B38 in this work. A Rat binding of 61% was found for B39 in this work. A Rat binding of 68% was found for B40 in this work. A Rat binding of 18% was found for B41 in this work. A Rat binding of 84% was found for B42 in this work. A Rat binding of 67% was found for B43 in this work. A Rat binding of 55% was found for B44 in this work.
